Data published in PMC4359245 (Oncotarget, 2014).

Experiments:
[1] = pH 7.5
proteinase K [2] = biological target: T1, proteinase K (Parengyodontium album, UniProt P06873); experiment: Proteinase K digestion of synthetic Aβ in lysis buffer, western blot; assay type: in vitro ADME; details: 1 h, 37°C, western blot 6E10; for Immunoreactivity with 6E10 after PK digestion (PK sensitivity): peptide in 1X PBS diluted in 1X lysis buffer, no DMSO, smallest amount of PK 5 μg/ml (range 0-50 μg/ml); for PK sensitivity of peptides dissolved in DMSO: 1X lysis buffer, PK 0-50 μg/ml
[3] = assay type: physicochemical; details: spiked into HuPrP-Tg mouse brain homogenate, RT 12 h, 10-60% sucrose step gradient, 200,000 x g, 1 h, 4°C, western blot 6E10; for Sucrose gradient fractions holding the majority of the peptide: 12 fractions from top
[4] = Negative-stain electron microscopy of synthetic Aβ with and without PK digestion; assay type: physicochemical; details: for Fibrils seen by electron microscopy after PK digestion: PK-treated peptide preparations, negative stain EM; for Fibril formation and morphology by electron microscopy: peptide in PBS, without PK, negative stain 2% uranylacetate, 80 kV
From the text: To further rule out this possibility, PK-treated peptides were also examined by EM.
The excess buffered-protein solution was removed, and negatively stained with 2% uranylacetate. Grids were then washed by touching a buffer and the excess buffer blotted off immediately using a Whatman filter paper. Grids were then air-dried and kept at room temperature. Negatively stained specimens were observed by a JEOL 1200EX electron microscope (JEOL, Tokyo, Japan) with 80 kV of electron acceleration voltage.

proteinase K [5] = biological target: T1, proteinase K; experiment: Proteinase K digestion of synthetic Aβ spiked into non-AD brain homogenate; details: spiked into non-AD brain homogenate with no detectable endogenous Aβ; P2 fraction; PK 0-50 μg/ml, 1 h, 37°C; western blot 6E10

T1 sequence (P06873 106-384): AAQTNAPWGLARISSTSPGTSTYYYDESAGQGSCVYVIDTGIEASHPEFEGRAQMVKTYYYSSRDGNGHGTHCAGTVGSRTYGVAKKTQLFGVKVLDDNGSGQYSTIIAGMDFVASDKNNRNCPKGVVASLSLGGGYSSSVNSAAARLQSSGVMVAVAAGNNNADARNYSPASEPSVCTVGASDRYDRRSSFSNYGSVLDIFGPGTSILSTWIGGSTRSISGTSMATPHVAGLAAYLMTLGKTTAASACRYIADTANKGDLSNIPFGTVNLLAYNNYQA

Substance | Detergent solubility: fraction in which the peptide is detected (S2 supernatant = soluble, P2 pellet = insoluble) [1] | Immunoreactivity with 6E10 after PK digestion (PK sensitivity) (proteinase K [2]) | PK sensitivity of peptides dissolved in DMSO (proteinase K [2]) | Sucrose gradient fractions holding the majority of the peptide [3] | Large aggregates in bottom fractions 10-12 of the sucrose gradient [3] | Fibrils seen by electron microscopy after PK digestion [4] | Fibril formation and morphology by electron microscopy [4] | PK resistance of spiked peptide (PK concentration resisted) (proteinase K [5])
Aβ40: synthetic amyloid β peptide Aβ40 purchased from Sigma | only in the S2 but not in the P2 | No immunoreactivity | PK-sensitive | between fractions 1 and 3 | detected in significant amounts in fractions 10 to 12 | no fibrils or significant structures could be observed | relatively scarce but much longer | ≥ 50 µg/mL
Aβ42: synthetic amyloid β peptide Aβ42 purchased from Sigma |  | No immunoreactivity | PK-sensitive | between fractions 1 and 3 | smaller amounts | no fibrils or significant structures could be observed | numerous but short fibrils | ≥ 50 µg/mL
